Assay results reported in publication PMC8533965.
Read-outs that look alike come from different tables or passages of the source.

B1: Buc-CTD (amino acids 363–639) fused to the Venus C-terminal half (domain or fragment)
chain: YPQVTQERQSVLSPSIDELSSRDEMFSTDVEDLEVVPGHVYVGGGRLAEASDMPVRSRKELPSVDKTCSVCQKTCACCGSTLQDEVGMCKMAEHSHPERDEMSDQDCDYDLEAEVRSNCESPRVSKRKCCSRHALPSCGHHCAKHRHRKLLCEGQESCDLREQARVHPKGECCEEYGALAKADKRIQKGALCRPCIEQQWREGVVSDQENWASCGAKPRSWRQVTGPQDQGRTPLRRSTCKSIHQQRPRSEYNDYDETEFTYCQRGRGSMKKRGSRY
B2: Bucky ball, full length (amino acids 1–639), fused to the Venus C-terminal half (Buc-VC) (natural protein)
chain: MEGINNNSQPMGVGQPHHPVNHTRPFFYVQPPSQPYFMYQWPMNPYGHYGFPGPALHFGRPYMAPYQFMQYPGYVIPHAPMQPIDYRRINPHYPSVASYDLRVRHHFQNAGMHRETACSEVQTDPSDSVNKLIDKIESLKACELGSDKGPNNVVSSTPDVVQGEKLTRLNEDSNLEVATKECKEDPVTRPTTYSDSAYDAESSQGRLDECVFSDVLPLDSSSVHEEEEEEEKDVNEEDEPQTVADEICSQNEMSASTTSNVFCSGVQSIADPTECHDLEKLGDEQKQDIPSADAAAVIEPLISLSEDFDLPYQILRLPCNKTTTGLSLEREIDPLVYFDSPSTLLPPQNYLSSIGSAYSYSYYPQVTQERQSVLSPSIDELSSRDEMFSTDVEDLEVVPGHVYVGGGRLAEASDMPVRSRKELPSVDKTCSVCQKTCACCGSTLQDEVGMCKMAEHSHPERDEMSDQDCDYDLEAEVRSNCESPRVSKRKCCSRHALPSCGHHCAKHRHRKLLCEGQESCDLREQARVHPKGECCEEYGALAKADKRIQKGALCRPCIEQQWREGVVSDQENWASCGAKPRSWRQVTGPQDQGRTPLRRSTCKSIHQQRPRSEYNDYDETEFTYCQRGRGSMKKRGSRY

Experiments:
[1] = biological target: zebrafish Vasa, full length (amino acids 1–715), fused to the Venus N-terminal half (zfVasa-VN) (zebrafish); assay: split reporter (BiFC, NanoBiT); BiFC with split Venus in living zebrafish embryos: Buc constructs with VC and zfVasa constructs with VN at their C-termini, mRNAs (200 ng/μL) co-injected at the one-cell stage, fluorescence imaged at 3 hpf by confocal microscopy; read-out percent of fluorescent embryos, three independent …
[2] = biological target: zfVasa S608A (full length) fused to the Venus N-terminal half (zebrafish); assay: as above
[3] = biological target: zebrafish Vasa, full length (amino acids 1–715), fused to the Venus N-terminal half (zfVasa-VN) (zebrafish); assay: as above; remark: listed apart in the source
[4] = biological target: zfVasa S607A (full length) fused to the Venus N-terminal half (zebrafish); assay: as above
[5] = biological target: zebrafish Vasa, full length (amino acids 1–715), fused to the Venus N-terminal half (zfVasa-VN) (zebrafish); assay: as above; remark: listed apart in the source
[6] = biological target: zfVasa-HC (helicase core, amino acids 278–715) fused to the Venus N-terminal half (zebrafish); assay: as above
[7] = biological target: zfVasa-BBM (amino acids 600–625) fused to the Venus N-terminal half (zebrafish); assay: as above
[8] = biological target: zfVasa RecA-CTD (amino acids 496–623) fused to the Venus N-terminal half (zebrafish); assay: as above
[9] = biological target: zfVasa eRecA-CTD (extended sequence at the C-terminus of RecA-CTD, amino acids 624–715) fused to the Venus N-terminal half (zebrafish); assay: as above
[10] = biological target: zfVasa (amino acids 227–670), recombinant, GST tag removed (zebrafish)

| Binder | percent of fluorescent embryos (BiFC) [1] [%] | percent of fluorescent embryos (BiFC) [3] [%] | also measured |
| --- | --- | --- | --- |
| B1 | 77 | – | – |
| B2 | 82 | 79 | percent of fluorescent embryos (BiFC) [2]: 27%; percent of fluorescent embryos (BiFC) [4]: 38%; percent of fluorescent embryos (BiFC) [5]: 77%; percent of fluorescent embryos (BiFC) [6]: 70%; percent of fluorescent embryos (BiFC) [7]: 69%; percent of fluorescent embryos (BiFC) [8]: 64%; percent of fluorescent embryos (BiFC) [9]: 14% |
| SVLSPSIDELSSRDEMFSTDVED (domain or fragment) [Buc amino acids 372–394 (highly conserved sequence, Buc-VBM) fused to the Venus C-terminal half] | 66 | – | – |
| YPQVTQERQSVLSPSIDELSSRDEMFSTDVEDLEVVPG [Buc-VBM (amino acids 363–400), recombinant, GST tag removed] | – | – | ATPase activity of 5-µM zfVasa with 2.5-mM ATP (NADH-coupled assay, absorption at 340 nm, 25 °C) on addition of 100-µM Buc-VBM, without RNA [10]: 2 fold |
| YPQVTQERQSVLSPSIDELSSRDEMFSTDVEDLEVVPG (domain or fragment) [Buc amino acids 363–400 fused to the Venus C-terminal half] | 72 | 70 | – |
| YPQVTQERQSVLSPSIDELSSGDEMFSTDVEDLEVVPG (domain or fragment) [Buc-VBM (amino acids 363–400) R384G (non-conserved control) fused to the Venus C-terminal half] | – | 63 | – |
| YPQVTQERQSVLSPSIDELSSRDLMFSTDVEDLEVVPG (domain or fragment) [Buc-VBM (amino acids 363–400) E386L fused to the Venus C-terminal half] | – | 48 | – |
| YPQVTQERQSVLSPSILELSSRDEMFSTDVEDLEVVPG (domain or fragment) [Buc-VBM (amino acids 363–400) D379L fused to the Venus C-terminal half] | 38 | 36 | – |
| YPQVTQERQSVLSPSIDELSSRDEMFATDVEDLEVVPG (domain or fragment) [Buc-VBM (amino acids 363–400) S389A fused to the Venus C-terminal half] | – | 43 | – |
